# Values of other authors in patent US20250241861A1, “Mechano-Sensitive Microcapsules For Drug Delivery” (The Trustees of the University of Pennsylvania, priority 2015, published 2025).
# Columns and labels:
# engineered cartilage = conditions: 10 ng/ml, 5 days post-injury
# [1] = test system: MMP activity in chondrocytes; conditions: 10 ng/ml, after inflammatory stimulation of chondrocytes
molecule,measurement,setting,value
"TGF-β3: transforming growth factor beta, anabolic compound / chondrogenic factor (protein, UniProt P10600 301-412, looked up) Transforming growth factor …: ALDTNYCFRNLEENCCVRPLYIDFRQDLGWKWVHEPKGYYANFCSGPCPYLRSADTTHSTVLGLYNTLNPEASASPCCVPQDLEPLTILYYVGRTPKVEQLSNMVVKSCKCS",reduction of GAG loss compared to injured controls,engineered cartilage,about 30%
same,MMP activity,[1],reduce MMP activity
